Results from PMC9328939, “A Randomized Double‐Blind Placebo‐Controlled First‐In‐Human Phase 1 Trial of TransCon PTH in Healthy Adults” (Journal of Bone and Mineral Research, 2020).
Values joined by “and” are separate entries in the source; they are usually repeats but may differ in a detail not shown here. Identical values can stand only once.

Legend:
healthy adults [1] = assay: Pharmacodynamics: bone turnover markers (serum BSAP, P1NP, CTx; urine NTx); type: in vivo, human; details: MAD
Experimental: (§1) The PD endpoints included albumin‐adjusted sCa, fractional excretion of calcium, sP, renal tubular maximum reabsorption of phosphate/glomerular filtration rate (TMP/GFR), intact endogenous PTH(1‐84), osteoblastic bone formation markers (serum bone‐specific alkaline phosphatase [BSAP] and P1NP), osteoclastic bone resorption markers (urine NTx and serum CTx), sMg, and 1,25‐dihydroxyvitamin D. PK samples were collected predose and at regular intervals postdose through 96 hours for the SAD cohorts and through day14 for the MAD cohorts.

healthy adults [2] = details: in vivo
Experimental: (§2) Subjects attended a screening visit; those who met eligibility criteria were randomly assigned to a SAD or MAD cohort (n = 10/cohort; eight active and two placebo) and received a single or multiple dose(s) of TransCon PTH, respectively, via a syringe and 31G 8‐mm needle s.c. to the abdomen. […] Multiple TransCon PTH doses administered daily for 10 days ranged from 3.5 to 24 μg PTH(1‐34)/day. Throughout drug administration and for 4 days following the final dose, subjects remained housed for laboratory tests and safety monitoring.
(§3) At screening, demographic information, medical history, and concomitant medications, vital signs with height and weight, hematology, blood chemistry (including sCa, sP, and sMg), intact endogenous PTH(1‐84), 1,25‐dihydroxyvitamin D, and urine samples were collected. In addition, a limited physical examination and electrocardiogram (ECG) were performed.
(§4) Via regular vital sign checks, physical examinations, and safety laboratory tests, subjects were also monitored for adverse events (AEs) throughout the trial, including injection site reactions (erythema, ecchymosis, edema, pruritus, and pain).

healthy adults [3] = assay: Pharmacodynamics: serum phosphate (sP); type: in vivo, human; details: MAD cohorts, near steady-state (days 8 to 10); linear regression on dose, p = .0430
Experimental: All statistical analyses were performed using SAS 9.3 or higher (SAS Institute, Inc., Cary, NC, USA). Summary statistics were reported for continuous data, including mean, standard deviation, standard error, median, minimum, and maximum, whereas number and percentage of subjects within treatment groups were reported for categorical data. For sP and TMP/GFR, a linear regression model was performed for the change from baseline, with dose and baseline as independent variables at near steady‐state. Near steady‐state was defined as the average of predose values on day 8, 9, and 10. Dose was defined as a continuous variable where placebo was considered zero.

healthy adults [4] = assay: Pharmacodynamics: serum magnesium (sMg); type: in vivo, human; details: MAD cohorts; data not shown
healthy adults [5] = assay: Pharmacodynamics: suppression of intact endogenous PTH(1-84); type: in vivo, human
Experimental: as §1

[6] = system: anti-PTH binding antibodies; assay: Anti-PTH binding antibodies, electrochemiluminescence bridging assay; type: in vivo, human; details: MAD cohorts, serum predose and day 14; screening and confirmatory assay
Experimental: Twice‐daily 12‐hour urine samples (including calcium, phosphorus, magnesium, and creatinine) were also collected. In MAD cohorts, serum samples collected from TransCon PTH‐treated and placebo‐treated subjects predose and postdose on day 14 were analyzed for anti‐PTH binding antibodies by BioAgilytix (Durham, NC, USA) using an electrochemiluminescence bridging assay. Samples were analyzed using a multitiered approach consisting of a screening assay and a confirmatory assay.

healthy adults [7] = assay: Safety and tolerability: adverse events in SAD and MAD cohorts; details: for Dizziness, light-headedness (including postural/orthostatic dizziness, syncope, presyncope) (%) / Tachycardia/palpitations (%): at least possibly related
Experimental: as §2, §3, §4

[8] = MAD cohorts administered TransCon PTH (n = 50)
[9] = MAD, 3.5 μg/day s.c. x 10 days, n = 8, number of subjects (% of cohort)
[10] = MAD, 3.5 μg/day x 10 days, n = 8, number of subjects (%)
[11] = MAD, 7 μg/day s.c. x 10 days, n = 8, number of subjects (% of cohort)
[12] = MAD, 7 μg/day x 10 days, n = 8, number of subjects (%)
[13] = MAD, 12 μg/day s.c. x 10 days, n = 10, number of subjects (% of cohort)
[14] = MAD, 16 μg/day s.c. x 10 days, n = 8, number of subjects (% of cohort)
[15] = MAD, 16 μg/day x 10 days, n = 8, number of subjects (%)
[16] = MAD, 20 μg/day s.c. x 10 days, n = 8, number of subjects (% of cohort)
[17] = MAD, 20 μg/day x 10 days, n = 8, number of subjects (%)
[18] = MAD, 24 μg/day s.c. x 10 days, n = 8, number of subjects (% of cohort)
[19] = MAD, 24 μg/day x 10 days, n = 8, number of subjects (%)
[20] = MAD, Total of all TransCon PTH doses (3.5 to 24 μg/day), n = 50, number of subjects (%)

In the case of “TransCon PTH: long-acting, essentially inactive prodrug: PTH(1-34) transiently bound to an inert 40 kDa mPEG carrier via a proprietary autocleaving linker”, the “serum BSAP (osteoblastic bone formation marker)” value (healthy adults [1]; 10 days of administration, compared to placebo) is reported as “neither the osteoblastic bone formation marker, BSAP (Fig. 8) or P1NP (data not shown), increased”, the “P1NP (osteoblastic bone formation marker)” value (healthy adults [1]; 10 days of administration, compared to placebo, data not shown) is reported as “neither the osteoblastic bone formation marker, BSAP (Fig. 8) or P1NP (data not shown), increased” and the “time course of serum CTx levels” value (healthy adults [1]; Free PTH at steady-state until at least day 11) is reported as “declined from day 8 to baseline by day 13”. For the same substance, the “serum CTx (osteoclastic bone resorption marker)” value (healthy adults [1]; over 10 days of administration, compared to placebo) was “increased modestly”, the “urine NTx (osteoclastic bone resorption marker)” value (healthy adults [1]; over 10 days, data not shown) was “no consistent increase” and the “treatment-emergent AE: upper respiratory tract infections” value (healthy adults [2]) was 6%. The “change in serum phosphate (sP) from baseline” value (healthy adults [3]) was “significant dose‐dependent decrease”, the “change in serum magnesium (sMg)” value (healthy adults [4]) was “nonsignificant increase” and the “intact endogenous PTH(1-84)” value (healthy adults [5]; MAD cohorts, daily doses x 10 days) was “dose‐dependent suppression”. For the same substance, the “intact endogenous PTH(1-84)” value (healthy adults [5]; SAD cohorts, data not shown) was “dose‐dependent suppression”, the anti-PTH antibodies [6] was “No anti‐PTH antibodies were detected” and the “treatment-emergent AE: catheter site phlebitis” value (healthy adults [7]; [8]) was 8%. For the same substance, the “treatment-emergent AE: dizziness” value (healthy adults [7]; [8]) was 10%, the “treatment-emergent AE: headache” value (healthy adults [7]; [8]) was 12% and the “treatment-emergent AE: musculoskeletal pain” value (healthy adults [7]; [8]) was 6%. For the same substance, the “treatment-emergent AE: palpitations” value (healthy adults [7]; [8]) was 8%, the “treatment-emergent AE: postural dizziness” value (healthy adults [7]; [8]) was 6% and the “treatment-emergent AE: presyncope” value (healthy adults [7]; [8]) was 6%. For the same substance, the “Any AE (%)” value (healthy adults [7]; [9]) was 6 (75.0) %, the “Any SAE (%)” value (healthy adults [7]; [9]) was 0 (0) % and the “Any drug-related AE (%)” value (healthy adults [7]; [9]) was 1 (12.5) %. The “Any moderate or severe AE (%)” value (healthy adults [7]; [9]) was 2 (25.0) %, the “Dizziness, light-headedness (including postural/orthostatic dizziness, syncope, presyncope) (%)” value (healthy adults [7]; [10]) was 1 (12.5) % and the “Tachycardia/palpitations (%)” value (healthy adults [7]; [10]) was 1 (12.5) %. The “Any AE (%)” value (healthy adults [7]; [11]) was 6 (75.0) %, the “Any SAE (%)” value (healthy adults [7]; [11]) was 0 (0) % and the “Any drug-related AE (%)” value (healthy adults [7]; [11]) was 2 (25.0) %. The “Any moderate or severe AE (%)” value (healthy adults [7]; [11]) was 3 (37.5) %, the “Dizziness, light-headedness (including postural/orthostatic dizziness, syncope, presyncope) (%)” value (healthy adults [7]; [12]) was 1 (12.5) % and the “Tachycardia/palpitations (%)” value (healthy adults [7]; [12]) was 0 (0.0) %. For the same substance, the “Any AE (%)” value (healthy adults [7]; [13]) was 7 (70.0) %, the “Any SAE (%)” value (healthy adults [7]; [13]) was 1 (10.0) % and the “Any drug-related AE (%)” value (healthy adults [7]; [13]) was 3 (30.0) %. The “Any moderate or severe AE (%)” value (healthy adults [7]; [13]) was 2 (20.0) %, the “Tachycardia/palpitations (%)” value (healthy adults [7]; MAD, 12 μg/day x 10 days, n = 10, number of subjects (%)) was 0 (0.0) % and the “Any AE (%)” value (healthy adults [7]; [14]) was 4 (50.0) %. The “Any SAE (%)” value (healthy adults [7]; [14]) was 0 (0) %, the “Any drug-related AE (%)” value (healthy adults [7]; [14]) was 2 (25.0) % and the “Any moderate or severe AE (%)” value (healthy adults [7]; [14]) was 1 (12.5) %. The “Dizziness, light-headedness (including postural/orthostatic dizziness, syncope, presyncope) (%)” value (healthy adults [7]; [15]) was 0 (0.0) %, the “Tachycardia/palpitations (%)” value (healthy adults [7]; [15]) was 0 (0.0) % and the “Any AE (%)” value (healthy adults [7]; [16]) was 3 (37.5) %. The “Any SAE (%)” value (healthy adults [7]; [16]) was 0 (0) %, the “Any drug-related AE (%)” value (healthy adults [7]; [16]) was 2 (25.0) % and the “Any moderate or severe AE (%)” value (healthy adults [7]; [16]) was 1 (12.5) %. For the same substance, the “Dizziness, light-headedness (including postural/orthostatic dizziness, syncope, presyncope) (%)” value (healthy adults [7]; [17]) was 0 (0.0) %, the “Tachycardia/palpitations (%)” value (healthy adults [7]; [17]) was 1 (12.5) % and the “subjects reporting vasodilatory or potentially vasodilatory AEs” value (healthy adults [7]; MAD, 24 μg PTH(1-34)/day cohort, four of eight, placebo two of two (100%)) was 50%. For the same substance, the “albumin-adjusted sCa in a subject with symptomatic hypercalcemia” value (healthy adults [7]; MAD, 24 μg PTH(1-34)/day, one of three males, discontinued dosing after the sixth dose) was 11.68 mg/dL, the “albumin-adjusted sCa in an asymptomatic subject on day 11” value (healthy adults [7]; MAD, 24 μg PTH(1-34)/day, single subject) was 11.76 mg/dL and the “Any AE (%)” value (healthy adults [7]; [18]) was 7 (87.5) %. The “Any SAE (%)” value (healthy adults [7]; [18]) was 0 (0) %, the “Any drug-related AE (%)” value (healthy adults [7]; [18]) was 6 (75.0) % and the “Any moderate or severe AE (%)” value (healthy adults [7]; [18]) was 5 (62.5) %. The “Dizziness, light-headedness (including postural/orthostatic dizziness, syncope, presyncope) (%)” value (healthy adults [7]; [19]) was 2 (25.0) %, the “Tachycardia/palpitations (%)” value (healthy adults [7]; [19]) was 3 (37.5) % and the “Any AE (%)” value (healthy adults [7]; [20]) was 66% and 33 (66.0) %. For the same substance, the “Any SAE (%)” value (healthy adults [7]; [20]) was 1 (2.0) %, the “Any drug-related AE (%)” value (healthy adults [7]; [20]) was 16 (32.0) % and the “Any moderate or severe AE (%)” value (healthy adults [7]; [20]) was 14 (28.0) %. The “Dizziness, light-headedness (including postural/orthostatic dizziness, syncope, presyncope) (%)” value (healthy adults [7]; MAD, Total of all TransCon PTH doses, n = 50, number of subjects (%)) was 5 (10.0) %.
